Measured values reported in article PMC7979852, “Alpha-1 antitrypsin inhibits TMPRSS2 protease activity and SARS-CoV-2 infection” (Nature Communications, 2021).

Target: T1, α1-antitrypsin (human, UniProt P01009 25-418)
T1 construct: alpha-1-antitrypsin (SERPINA1), human, plasma-derived, 52 kDa; The activity assays used Prolastin; also called α1AT; alpha-1 antitrypsin; source: bought: Merck (A9024) or GRIFOLS (Prolastin), purified from human plasma
Experiment: SPR; TMPRSS2 amine-coupled (NHS/EDC) on an MUA-functionalised gold chip, Reichert SR7000; α1AT flowed at 0-20 µM in 10 mM HEPES, 150 mM NaCl, 0.05 % Tween-20, pH 7.5, 10 µl/min; equilibrium analysis
Conditions: both partners purified

T1 sequence (P01009 25-418): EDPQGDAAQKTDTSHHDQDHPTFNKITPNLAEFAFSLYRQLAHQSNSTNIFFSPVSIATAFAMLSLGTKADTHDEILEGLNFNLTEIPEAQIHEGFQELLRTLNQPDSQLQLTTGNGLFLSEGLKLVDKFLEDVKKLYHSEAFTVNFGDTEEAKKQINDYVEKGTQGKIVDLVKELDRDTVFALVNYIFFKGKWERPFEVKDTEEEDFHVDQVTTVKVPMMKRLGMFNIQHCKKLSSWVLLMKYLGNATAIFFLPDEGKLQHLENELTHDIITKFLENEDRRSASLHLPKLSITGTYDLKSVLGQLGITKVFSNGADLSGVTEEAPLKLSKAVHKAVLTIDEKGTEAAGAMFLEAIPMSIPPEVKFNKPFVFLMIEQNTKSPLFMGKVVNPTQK

B1: recombinant TMPRSS2 (enzyme)
chain: not shown
notes: TMPRSS2, human, recombinant protein from Creative BioMart; No catalogue number or construct limits are printed; The cell-associated activity assay used TMPRSS2 expressed from Addgene 53887 in HEK293T cells; also called recombinant human TMPRSS2; transmembrane serine protease 2; source: bought: Creative BioMart
Question: B1 was tested. Which Kd did it give?
Answer: 941 ± 297 nM
